Where two headings read alike, the source gives them in different places.
Assays:
CRX HD (His) = CRX HD (His) (UniProt O43186 31-107); assay: BLI
CRX HD E42K [1] = target: T1, CRX HD E42K (UniProt O43186 31-107, E42K); assay: BLI
CRX HD R41Q [2] = target: T2, CRX HD R41Q (UniProt O43186 31-107, R41Q); assay: BLI
CRX HD R90W = CRX HD R90W (UniProt O43186 31-107, R90W); assay: BLI
CRX HD E42K [3] = target: T1, CRX HD E42K; assay: SEC-MALS
CRX HD R41Q [4] = target: T2, CRX HD R41Q; assay: SEC-MALS
Cy3-CRX HD = Cy3-CRX HD (UniProt O43186 31-107); assay: smTIRFM
Sequence of Cy3-CRX HD (O43186 31-107): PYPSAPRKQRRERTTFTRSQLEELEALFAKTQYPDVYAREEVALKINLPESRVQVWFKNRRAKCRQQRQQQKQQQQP

Cy3-CRX HD;NRL DBD [5] = target: T3, Cy3-CRX HD;NRL DBD (;, UniProt O43186;P54845 31-107;128-237, |); assay: smTIRFM
T3 sequence (O43186 31-107, chain 1 of 2): as the sequence (O43186 31-107) above
T3 sequence (P54845 128-237, chain 2 of 2): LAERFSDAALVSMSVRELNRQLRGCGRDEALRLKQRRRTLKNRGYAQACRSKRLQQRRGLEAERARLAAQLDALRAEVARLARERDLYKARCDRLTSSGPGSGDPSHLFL

Cy3-CRX HD;NRL DBD [6] = target: T3, Cy3-CRX HD;NRL DBD; assay: smTIRFM; remark: listed apart in the source

T2 sequence (O43186 31-107 R41Q): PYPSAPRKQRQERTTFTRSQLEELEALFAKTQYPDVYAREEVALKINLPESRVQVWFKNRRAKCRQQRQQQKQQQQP
T1 sequence (O43186 31-107 E42K): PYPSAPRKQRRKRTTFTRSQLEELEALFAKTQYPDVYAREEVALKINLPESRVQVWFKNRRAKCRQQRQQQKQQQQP
Sequence of CRX HD R90W (O43186 31-107 R90W): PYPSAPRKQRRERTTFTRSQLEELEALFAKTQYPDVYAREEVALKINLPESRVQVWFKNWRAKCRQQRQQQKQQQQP
Sequence of CRX HD (His) (O43186 31-107): as the sequence (O43186 31-107) above

B1: Ret4 20-mer biotinylated (dsDNA)
DNA 1: CAGGAGCTTAGGAGGGGGAG
DNA 2: CTCCCCCTCCTAAGCTCCTG
- Kd (CRX HD (His)): 430 ± 30 nM
- Kd (CRX HD E42K [1]): 30 ± 10 nM
- Kd (CRX HD R41Q [2]): 1250 ± 30 nM
- Kd (CRX HD R90W): 900 ± 30 nM

B2: Ret4 21-mer (dsDNA)
DNA 1: CCAGGAGCTTAGGAGGGGGAG
DNA 2: CCTCCCCCTCCTAAGCTCCTG
- binding result (CRX HD E42K [3]): binds
- binding result (CRX HD R41Q [4]): binds

B3: NRE-Ret4 38-mer biotinylated (dsDNA)
DNA 1: CCAGATGCTGATTCAGCCAGGAGCTTAGGAGGGGGAGG
DNA 2: CCTCCCCCTCCTAAGCTCCTGGCTGAATCAGCATCTGG
- Kd (Cy3-CRX HD): 55.1 nM
- Kd (Cy3-CRX HD;NRL DBD [5]): 28 nM
- Kd (Cy3-CRX HD;NRL DBD [6]): 39.6 nM

Source: paper PMC11455607
